This passage reports [Ca2+]i of wild-type neurons treated with TgCM depleted with 3D6 (Indo-1) results from patent publication US20130195866A1, “METHODS TO INHIBIT NEURODEGENERATION” (priority 2010, published 2013).

The assay concerns the target human amyloid β (Aβ) peptides secreted into the medium of Tg2576 neuron cultures (Aβ40, Aβ42 and their oligomers) (human) (UniProt P05067). As to the kind of experiment: cell-based or functional assay.

Chain of human amyloid β (Aβ) peptides secreted into the medium of Tg2576 neuron cultures (Aβ40, Aβ42 and their oligomers) (human) (P05067 672-713 limits assumed): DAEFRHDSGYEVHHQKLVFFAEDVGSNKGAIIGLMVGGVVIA

Consider “3D6 antibody, a high-titer monoclonal Aβ antibody”, for which the [Ca2+]i of wild-type neurons treated with TgCM depleted with 3D6 (Indo-1) amounted to 98 nM.
